In patent US20170114104A1:

How the values were obtained:
[1] = target: Biotinylated green fluorescent protein (biotin-GFP); assay: native-PAGE, dissociation under excess biotin, 23 °C, 10 h
[2] = target: Biotinylated green fluorescent protein (biotin-GFP); assay: native-PAGE, dissociation under excess biotin, 37 °C, 10 h
[3] = target: Biotinylated green fluorescent protein (biotin-GFP); assay: native-PAGE, dissociation under excess biotin, 45 °C, 10 h

Neutravidin (NA) (from UniProt P02701 25-152)
percent of biotin conjugate dissociated after 10 h [1]: 6.8%
percent of biotin conjugate dissociated after 10 h [2]: 16%
percent of biotin conjugate dissociated after 10 h [3]: 32%
